test: soluble on expression in E. coli; label from the status in PepcDB or PDB records

| Sequence | soluble on expression in E. coli |
| --- | --- |
| MSHSEAGQAASVRRVLAVIPARGGSKGVPAKNLLPVGGVPLVARAVRECRATRLVTDVVVSTDDHAIAAAAREAGAEVVLRPAAIAGDTATSEAAVLHAMDTHEALHGAAVDVVLLVQCTSPFIVREDVDGVVHAIVGKGADTALTVAPFHGFVWRDADDAPGALGAERAAVEGGTDTLVTGTATSGGYGINHDKSFRPRRQDRPQDLLETGAVYGMDATGFREARHRFFGRTELVRTDPARVLEIDDPHDLARARALAPLFDANRPGALPTAEDIDAVVLDFDGTQTDDRVLIDSDGREFVSVHRGDGLGIAALRKSGLTMLILSTEQNPVVAARARKLKIPVLHGIDRKDLALKQWCEEQGIAPERVLYVGNDVNDLPCFALVGWPVAVASAHDVVRGAARAVTTVPGGDGAIREIASWILGPSLDSLDKLEHHHHHH | not soluble |
| MTRMLPEPAYRHGSVGKIGVLMINLGTPDAPTAKALRAYLKQFLSEPRIVEFPRWLWWFILNGIILNVRPAKSAKKYEQIWTSEGSPLRVHTARQTALVAALLEQQADSSLVVEYAMIIGNPSIAEKLQQMKVQGCDRILVLPLFPQYAASSTGCVLDGVFSELRKMRNIPDIRTVRHYHDDPGYIAALAQNVRDYWEKHGQPDKLIISFHGVPRKTLEMGDPYHCECQKTGRLLAEALELADDRYQICFQSRFGFAQWLGPYTAEILAELGKQKTGRVDVVCPGFVSDCLETLEEIALEGKAIFTEAGGGEFHYIPSLNEHPLWIEAIGNIIQTHLTGWADRRLSEEAAERSRKRALALGARE | not soluble |
| MSLQDLTINAIGAQGDGLARTADGKPAFVPLTLPGEVVRAKMDGARGEVVEILAPSPERVAPACRHYGVCGGCALQHWAAEPYRAWKAEQVRLQLSMEGLETEILPTFAAPPASRRRVALHARKGGKGQGARLGFKERRSWNLVSIEECPVTDPRLVAALPALARLAEPFLEHPKSAPTLHVTLTATGLDIDITGVERKSGGLSADARMRAAMAAGEGDFARVTLAGETIYGARQPLVKLGQAVVALPPGSFLQAVPAAEKAMVELAVAEAQGASRVADLYCGVGTFTFPLAEVAQVYAAEMSAPAITALKAAIGGAPGLKPITAEARDLVRRPVLSTELAKTDVVVIDPPRAGAAEQTVEIAKSKVAKVLGVSCNPQTFAKDARVLVDAGFKLVRVTPVDQFVWSPHIELVGVFTREGHHHHHH | soluble |
| APEERDLTQEQTEKLLQFQDLTGIESMDQCRHTLEQHNWNIEAAVQDRLNEQEGVPSVFNPPPSRPLQVNTADHRIYSYVVSRPQPRGLLGWGYYLIMLPFRFTYYTILDIFRFALRFIRPDPRSRVTDPVGDIVSFMHSFEEKYGRAHPVFYQGTYSQALNDAKRELRFLLVYLHGDDHQDSDEFCRNTLCAPEVISLINTRMLFWACSTNKPEGYRVSQALRENTYPFLAMIMLKDRRMTVVGRLEGLIQPDDLINQLTFIMDANQTYLVSERLEREERNQTQVLRQQQDEAYLASLRADQEKERKKREERERKRRKEEEVQQQKLAEERRRQNLQEEKERKLECLPPEPSPDDPESVKIIFKLPNDSRVERRFHFSQSLTVIHDFLFSLKESPEKFQIEANFPRRVLPCIPSEEWPNPPTLQEAGLSHTEVLFVQDLTDE | soluble |
| QGKPREAAQHLEAEASRASGAQRNQLLADAAFAWHEAGDTARAQVLVRQVSVQQLTGESKARFVLLLGELALANRQPVRAFQYFGESSSGLSKKLQIRWLLGRAAALEANGDAFGAAQQRARADQALLGKARNENQAAITRLLAGLDHEVLLTRTAALPVGDPLYHFVGRVLLSRGEALPQPLEGSVQGSVGSSQRPSADTDGYRPPLKLAVLLPLTGSLATAAAPVRDGFLAGYYAETRRRPDLDFFDTGSTPVGAKAAYAKAIAAGADFVVGPLGRDEVSALFSQGQLSIPLLALNRSTGDRVSLPSGSASFSLAPEDDGVIAADYLLAQGQRNVIVIGSNDDVGRRGVQAFMDRFRARGGQVLAALGVADVPGDLGPRLRGADRADAVFLAVRGPTARVLAPQLASLGLSSKPQVGTSQLVLGTGKPEEDTLLDGIVYPTEPWSVQGVKSIPSAADVAVRLPNMRGAALRLFAFGVDAWKLSVYLEGLSAGGAGGGLRGATGTLRLDDSGNVIRIPIWATFRNGQSIPVEML | not soluble |
| MGGRSAQPRRFSFACRILHPAVAHDAMAGSRYILRAPASIIRLAQHGWLHCCLHFFLFPAMNDVCFVAKGSALYLFTVEIIVFGSPSLRHNVLSFFYFALPWFKRQCRLKVNFNRLKEIRGIAQVVRKAFFISKTLPCI | soluble |
| GPGSMKGKAGRSIAAISDVRAAVLRFCDEQLSRRLDTQPVAEVHQKVSACVQTVDPAMTPYIFGSTAVLGVHEQGSDVDFVCLSPTDVQDGKGADAVSEVAKGLQSDFLFRLGEVVKREHYLWGIELVRRTRVPVLRVKGGLGVDGVSFDVTANRRNGVRNSALLRAYFTQCPEARWLSMLVKQWSKKTGLNASVEGGCITSYGWNIMIVYYLLRRRLVTLVPVESCDVADIAPMPPHMPLESLQQGGQGLADMLMDFVSYYLDEFAPETEVMSLTRAAGETTTEMLSWTKQAEDMARIRGEKIHYRWCIEDPYEYDLNVGRNVTPFKLMLLRKHLERARETALLLLATPPPSATARSVK | not soluble |
| MVINSPEKEDTALILYTSGTTGKPKGVMLTFDNILANVDSLDVYKMYEETDVTIALLPLHHILPLLGTGVMPLLYSATIVFLEDISSVALIDAMKKYKGTMMIGVPKLWEVMHKKIMDTINSKAITRFIFKLAKKVNSLSFSKLIFKKVSEGFGGHIKFFVSGGSKLNPQITKDFYTLGIKICEGYGMTETSPIISYTPKNNIVFDSAGKLEHHHHHH | not soluble |
| MGHHHHHHSHMKDIGHLQHLAQRLQWNRRAVNICGMHGWTKDLSPHSRMPSMLEHVKHYMSC | not soluble |
| SKLYDINNEIFEDLGAEKRELIQPNDVPQLLKDAIVSVEDRRFYKHIGVDPIRIIGSALSNVKNGGLQGGSTLTQQLIKLSYFSTKESDQTLKRKAQEAWMAVRLEREKSKEEILTYYINKVYMANGFYGMETAAENYYGKHLSELDLPQTALLAGMPQAPNSYDPYTKP | not soluble |
| SGEEANDDKKPTTKFELERETELRFEVEASQSVQLELLTGMAEIFGTELTRNKKFTFDAGAKVAVFTWHGCSVQLSGRTEVAYVSKDTPMLLYLNTHTALEQMRRQAEKEEERGPRVMVVGPTDVGKSTVCRLLLNYAVRLGRRPTYVELDVGQGSVSIPGTMGALYIERPADVEEGFSIQAPLVYHFGSTTPGTNIKLYNKITSRLADVFNQRCEVNRRASVSGCVINTCGWVKGSGYQALVHAASAFEVDVVVVLDQERLYNELKRDLPHFVRTVLLPKSGGVVERSKDFRRECRDERIREYFYGFRGCFYPHAFNVKFSDVKIYKVGAPTIPDSCLPLGMSQEDNQLKLVPVTPGRDMVHHLLSVSTAEGTEENLSETSVAGFIVVTSVDLEHQVFTVLSPAPRPLPKNFLLIMDIRFMDLK | not soluble |
| MVDTMMNTNTDGVTAVPPIFPLPSTTPNRNNNNELAMLAQKQIVAGLLLQQPTIVQAAVNGTNSQKHLADIDYTNVIQTLQALGTTNLKAFSLLLDPQSQTSQLISEDTRPSASSSPSSTATAVSNSGQSNATSTSSSSTEPEYKPRNVREKVYADGYIMSFDKKSCCGTKEFWRCERKNDCNARMHSDINTREIVRKLHPHNHEKPSPEELAFYEQDFSTLHPNYCHPVKSINRSYMQRKLSRASHVSQALPIAPQQIKAEPMEVDTTNQTIQNFQQNNNLMLLASINAAATAAAAATSAGISPPVVGQKRVSTTVMPITLKSQRTTPKEEEDSSQLMSQEEFRITYELTKKLMEMMKPKTEIGVRWQGDEGSILLFLSHDNGAEENVFFPVVVMNRDEKSLITALEGFTGKRCEGKLALCYSQRVNVLVHEALISNWTHGKLFLVNTDAPALWRLTPVDAFGEPLNHV | not soluble |
| MLTRVPVLILAVIVMLALCQEPEKPEKRPALLSRYGRAVLPRYGKRSGNLMESSQNSLTEESSDVVCQLIDGKYICLPVDAGFLGEVNGSIKQNSKTKCPAFFKNVSFSLFFRAFYLTVPACTSKKNVLLTSTTSTINHQKLEPATTLSPIRQRRRCLFQIDFAYLTVCPSKCQEGTDTGKVADYLLSLGCSDMDVIEREMKRVCCPE | not soluble |
| MCKNPISIIIRIQHNIKVLPEILKACEQLHPLEIILTINGYIDDSIDIAQSYNCKIITLEEPSELNNCYVIGATKAKGKYLLFLDANYIIQSSLLTQFLQPLLDESADIVLNNLDDFFYQKQKPTIEMIWQQVTNHFFHRPDLHVNSLLFPPYAITKEILDAITPESLLNPILAQMKIIKNKFRISNHFKISIPQIPSFPSKQLIRYHLEAIENWVNILQDSRGNYTDNNRRRDIILELQNGEQRAIPKIITGKKFYSNTYGNKQLSIIIPVQNEEKTIESIIFEVQKLKPLEIIIIVNGSTDKTEELAKNCGATVITYKEALGIDTGRAVGAYFAKGDILLFIDGDFLIPSSDLLPFVQSVQNGTDLALNKLEHYYMYRVPYTIVTACKHVVNLACNRKDLGMGSTTAVPHAFSRKCIDTIGFDSLLSPTLSQVKTILAGLHVQNVHSIDVDKINRVRPEKHFSQEGYLSLATQQIIGDHIEAISYLIEQKRNTEYFLEHHHHHH | not soluble |
| MSKNMQNTSYRKLDVDSFDPEQYDENDETVDTPGLGPDERAVQGFLSSNRLEDALHAALLSPPLKTKDQNVKDRATQLVTKVLQSFKNAEIEATVQKLSIEESDILMKYVYKSMEIGADAAVCQSLLAWHAQLVAKFGHGAIMRVFSGRQRL | soluble |
| DREELDKQLRHERERFRLLVDAVENYAIFLLDPDGLIQSWNVGAKQLTQYEESDILGEHVSTFHTEKQVADGIPEQLLQEAEECGKAIDRGLRVRKDGSTFWADVTVTALQENSDARGFAKVIKDIT | not soluble |
| MHKLLISLMMLLSFQAFSQVQEYTLNNGLKVLVKEDHRAPVVVSMIWYNVGSADEPVGITGVSHAIEHMMFKGTSKYPVGVFSKTIAALGGQENAFTNNDYTAYYEKLDAGHLATSFELEADRMNNLLLNSEEFAKEIKVIQEERRLRTDNNPQALAFERFLATAHLTAPYNHPVIGWMNDLKQMKVEDLKKWYESYYAPNNATLVVVGDVNPEKVHALAEHYFGSIAKRPIASRKPQQEPSALGKKMVYINAPAKLPLLLIGYTVPSVKTAKNNWEPYALEIIAGILDAGESARFAKHLVRGNQVATGAEAYYNLYSRYQSQFIVYGAPSQDHQIKDLEKALITELEALKKAPVSNQELQRVKNQIIAQKTFEKDSIFGQAMELGLLETIGLGWKNTETYTKAINEITPEQIQQVAQRYFQENNMTVAELKPIRQEEVRP | not soluble |
| IPEYVDWRQKGAVTPVKNQGSCGSCWAFSAVVTIEGIIKIRTGNLNQYSEQELLDCDRRSYGCNGGYPWSALQLVAQYGIHYRNTYPYEGVQRYCRSREKGPYAAKTDGVRQVQPYNQGALLYSIANQPVSVVLQAAGKDFQLYRGGIFVGPCGNKVDHAVAAVGYGPNYILIKNSWGTGWGENGYIRIKRGTGNSYGVCGLYTSSFYPVKN | soluble |
| NRYQDLEKQVITTGNSIIEPLAIASESHLLAESREAVRRLISYAHRKNSKLVRSIAVFDEHHELFVTSNFHPNFEALMFPKDKPIPKLGNSEIYENSLILRVPILSEGHYLSELSNENQGTKAIGYIAVEMDLSSLRLQQYQE | not soluble |
| PIEGEKVDLRIMSTTDLHTNLVNYDYYQDKESQKIGLAKTAVLIEEAKKENPNTVLVDNGDVIQGTPLGTYKAIVKPVAENEEHPMYQAMNALGYDASTLGNHEFNYGLDYLKKIIATANLPILNANVLDFKTHQPVFKTYDIITKTFKDSTGRAVALNIGITGIVPPQILNWDKANLEGKVIVKDSVKAIEEIVPTMRAKGADVILVLSHSGIGDDRYEEGEENVGYQIASIKGVDAVVTGHSHAEFPSGNGTGFYEKYTGVDGINGKINGTPVTMAGKYGDHLGIIDLGLSYTNGKWQVSESSAKIRKIDMNSTTADERIIALAKEAHDGTINYVRQ | not soluble |

From the DeepSol protein solubility set
